The target of test [1] is cTnI质控品重组抗原 (human) (UniProt P19429). Description: indirect ELISA, cTnI coated at 1 ug/ml, antibody 40 ng/ml, goat anti-mouse IgG-HRP.
For test [2] the target is unchanged. The test is described as follows: indirect ELISA, cTnI coated at 1 ug/ml, antibody 8 ng/ml, goat anti-mouse IgG-HRP. For orientation: An ELISA detects its analyte on a solid surface through an enzyme-linked reagent.
Test [3] has the same target. Description: indirect ELISA, cTnI coated at 1 ug/ml, antibody 0.32 ng/ml, goat anti-mouse IgG-HRP.
Test [4] has the same target. The test is described as follows: indirect ELISA, cTnI coated at 1 ug/ml, antibody 1.6 ng/ml, goat anti-mouse IgG-HRP.
The target is the same in test [5]. The test is described as follows: indirect ELISA, cTnI coated at 1 ug/ml, antibody 200 ng/ml, goat anti-mouse IgG-HRP.
Test [6] shares this target. The test is described as follows: indirect ELISA, cTnI coated at 1 ug/ml, antibody 0 ng/ml (blank, background), goat anti-mouse IgG-HRP.
Test [7] shares this target. The test is described as follows: indirect ELISA, cTnI coated at 1 ug/ml, antibody 1000 ng/ml, goat anti-mouse IgG-HRP.

The values below come from patent publication CN111018973A.

Chain of UniProt P19429 (P19429 whole entry): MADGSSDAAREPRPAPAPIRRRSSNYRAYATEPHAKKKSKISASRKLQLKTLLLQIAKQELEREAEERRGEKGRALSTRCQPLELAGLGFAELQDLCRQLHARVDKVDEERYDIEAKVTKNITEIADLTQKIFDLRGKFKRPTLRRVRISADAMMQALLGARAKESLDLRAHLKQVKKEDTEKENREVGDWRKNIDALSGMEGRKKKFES

B1: Anti-cTnI 8B6 重组抗体 (WT) (antibody, V domains shown)
VH: EVQLQQSGAELVKPGASVKLSCTASGFNIRDYYMHWMKQRTEQGLDWIGRIDPEEGETKYPPEFQGKATITADTSSNTAYLQLSTLTSEDTAVYYCARYYTSYIPFVYWGQGTLVTASA
VL: DVVMTQTPLSLSVSLGDQASISCRSTQSLLYSQRHTFLHWYLQKPGQSPKLLIFKISNKFSGVPDRFSGSGSGTDFTLKISRVEAEDLGVYFCSNSTHLPYTFGSGTKLEIKR
B1: the OD值 (450 nm, 参考630 nm) is 1.85 OD with cTnI质控品重组抗原 (human) [1]; 1.47 OD with cTnI质控品重组抗原 (human) [2]; 0.086 OD with cTnI质控品重组抗原 (human) [3]; 0.227 OD in the test with cTnI质控品重组抗原 (human) [4]; 1.91 OD with cTnI质控品重组抗原 (human) [5]; 0.062 OD in the test with cTnI质控品重组抗原 (human) [6]. Besides, in the test with cTnI质控品重组抗原 (human) [7], the OD值 (450 nm, 参考630 nm) was 2.03 OD.
